Assay results from patent US10047131B2, “Peptides and combination of peptides for use in immunotherapy against ovarian cancer and other cancers” (immatics biotechnologies GmbH, priority 2015, dated 2018).

molecular target: HLA-A*02:01 (Homo sapiens, UniProt P04439, D140Y/D185E/D98H/E176V/E277Q/G131W/G231S/I119V/I121R/I166T/I218V/L300P/L318F/N151K/N90K/P208A/P217A/Q86G/Q94H/R138H/R169H/T345S); test: MHC binding assay (UV-ligand exchange, ELISA of exchange yield); conditions: binding to HLA-A*02:01, UV-ligand exchange
Method in brief: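 Peptide–MHC complexes made by UV-ligand exchange, where a UV-cleavable peptide is replaced by the test peptide. Exchange yield measured by ELISA: complexes diluted 100-fold on streptavidin-coated plates, stabilized complexes detected with HRP anti-β2m, TMB read at 450 nm.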

Row | Substance | Peptide exchange (MHC class I binding score, peptide exchange yield)
1 | 513 (SLWPSPEQL; listed as Homo sapiens) [compound 513] | “++” (≥20% = ++)
2 | 514 (ILVDWLVQV; listed as Homo sapiens) [compound 514] | “+++” (≥50 = +++)
3 | 515 (LLQELVLFL; listed as Homo sapiens) [compound 515] | “+++” (≥50 = +++)
4 | 516 (AVGPASILKEV; listed as Homo sapiens) [compound 516] | “++” (≥20% = ++)
5 | 517 (LLMPIPEGLTL; listed as Homo sapiens) [compound 517] | “+++” (≥50 = +++)
6 | 518 (KLNAEVACV; listed as Homo sapiens) [compound 518] | “+++” (≥50 = +++)
7 | 519 (GLLHLTLLL; listed as Homo sapiens) [compound 519] | “+++” (≥50 = +++)
8 | 520 (LAVHPSGVAL; listed as Homo sapiens) [compound 520] | “+” (≥10% = +)
9 | 521 (MLLTKLPTI; listed as Homo sapiens) [compound 521] | “+++” (≥50 = +++)
10 | 522 (TLWYRSPEV; listed as Homo sapiens) [compound 522] | “++” (≥20% = ++)
11 | 523 (YQIPRTFTL; listed as Homo sapiens) [compound 523] | “++” (≥20% = ++)
12 | 524 (ALIENLTHQI; listed as Homo sapiens) [compound 524] | “++” (≥20% = ++)
13 | 525 (VLLEAGEGLVTI; listed as Homo sapiens) [compound 525] | “+++” (≥50 = +++)
14 | 526 (RLAEVGQYEQV; listed as Homo sapiens) [compound 526] | “++” (≥20% = ++)
15 | 527 (FLLEPGNLEV; listed as Homo sapiens) [compound 527] | “++++” (≥75% = ++++)
16 | 528 (SVAEGRALMSV; listed as Homo sapiens) [compound 528] | “+++” (≥50 = +++)
17 | 529 (LLADELITV; listed as Homo sapiens) [compound 529] | “+++” (≥50 = +++)
18 | 530 (VMYADIGGMDI; listed as Homo sapiens) [compound 530] | “+++” (≥50 = +++)
19 | 531 (YTLPIASSIRL; listed as Homo sapiens) [compound 531] | “+++” (≥50 = +++)
20 | 537 (TLAPGEVLRSV; listed as Homo sapiens) [compound 537] | “+++” (≥50 = +++)
21 | 538 (LLLAHIIAL; listed as Homo sapiens) [compound 538] | “++” (≥20% = ++)

Row | Substance | Peptide exchange (MHC class I binding score, peptide exchange yield)
22 | 539 (ALFDAQAQV; listed as Homo sapiens) [compound 539] | “+++” (≥50 = +++)
23 | 541 (SMLEPVPEL; listed as Homo sapiens) [compound 541] | “+++” (≥50 = +++)
24 | 542 (RVWDISTVSSV; listed as Homo sapiens) [compound 542] | “+++” (≥50 = +++)
25 | 543 (GLLPTPITQQASL; listed as Homo sapiens) [compound 543] | “+++” (≥50 = +++)
26 | 544 (LLWDVPAPSL; listed as Homo sapiens) [compound 544] | “+++” (≥50 = +++)
27 | 545 (LLADLLHNV; listed as Homo sapiens) [compound 545] | “+++” (≥50 = +++)
28 | 546 (VMIAGKVAVV; listed as Homo sapiens) [compound 546] | “+++” (≥50 = +++)
29 | 547 (TLDITPHTV; listed as Homo sapiens) [compound 547] | “+++” (≥50 = +++)
30 | 548 (ALWENPESGEL; listed as Homo sapiens) [compound 548] | “++” (≥20% = ++)
31 | 549 (AMLENASDIKL; listed as Homo sapiens) [compound 549] | “+++” (≥50 = +++)
32 | 550 (FLYDEIEAEVNL; listed as Homo sapiens) [compound 550] | “+++” (≥50 = +++)
33 | 551 (KLYESLLPFA; listed as Homo sapiens) [compound 551] | “+++” (≥50 = +++)
34 | 552 (GLLDLPFRVGV; listed as Homo sapiens) [compound 552] | “++++” (≥75% = ++++)
35 | 553 (SLLNQDLHWSL; listed as Homo sapiens) [compound 553] | “++++” (≥75% = ++++)
36 | 554 (LLMPSSEDLLL; listed as Homo sapiens) [compound 554] | “+++” (≥50 = +++)
37 | 555 (YVLEGLKSV; listed as Homo sapiens) [compound 555] | “+++” (≥50 = +++)
38 | 556 (FLTDLEDLTL; listed as Homo sapiens) [compound 556] | “+++” (≥50 = +++)
39 | 557 (KLYDDMIRL; listed as Homo sapiens) [compound 557] | “+++” (≥50 = +++)
40 | 558 (GLLENIPRV; listed as Homo sapiens) [compound 558] | “+++” (≥50 = +++)
41 | 559 (VTVPPGPSL; listed as Homo sapiens) [compound 559] | “++” (≥20% = ++)
42 | 560 (ALWDIETGQQTTT; listed as Homo sapiens) [compound 560] | “+++” (≥50 = +++)

Row | Substance | Peptide exchange (MHC class I binding score, peptide exchange yield)
43 | 561 (YLQLTQSEL; listed as Homo sapiens) [compound 561] | “+++” (≥50 = +++)
44 | 562 (YLEELPEKLKL; listed as Homo sapiens) [compound 562] | “+++” (≥50 = +++)
45 | 563 (WLLPYNGVTV; listed as Homo sapiens) [compound 563] | “+++” (≥50 = +++)
46 | 564 (TVTNAVVTV; listed as Homo sapiens) [compound 564] | “+++” (≥50 = +++)
47 | 565 (ALQETPTSV; listed as Homo sapiens) [compound 565] | “++” (≥20% = ++)
48 | 566 (VIADGGIQNV; listed as Homo sapiens) [compound 566] | “++” (≥20% = ++)
49 | 567 (SLLPLDDIVRV; listed as Homo sapiens) [compound 567] | “+++” (≥50 = +++)
50 | 568 (TLYDIAHTPGV; listed as Homo sapiens) [compound 568] | “++++” (≥75% = ++++)
51 | 569 (KLVDRTWTL; listed as Homo sapiens) [compound 569] | “+++” (≥50 = +++)
52 | 570 (ALANQIPTV; listed as Homo sapiens) [compound 570] | “++” (≥20% = ++)
53 | 571 (LLLTTIPQI; listed as Homo sapiens) [compound 571] | “+++” (≥50 = +++)
54 | 572 (ALADLIEKELSV; listed as Homo sapiens) [compound 572] | “+++” (≥50 = +++)
55 | 573 (ILVANAIVGV; listed as Homo sapiens) [compound 573] | “+++” (≥50 = +++)
56 | 574 (YLLQEPPRTV; listed as Homo sapiens) [compound 574] | “++” (≥20% = ++)
57 | 575 (YLISQVEGHQV; listed as Homo sapiens) [compound 575] | “+++” (≥50 = +++)
58 | 576 (ILLNNSGQIKL; listed as Homo sapiens) [compound 576] | “++++” (≥75% = ++++)
59 | 577 (VMFEDGVLMRL; listed as Homo sapiens) [compound 577] | “+++” (≥50 = +++)
60 | 578 (FLDPGGPMMKL; listed as Homo sapiens) [compound 578] | “+++” (≥50 = +++)
61 | 579 (NLMEMVAQL; listed as Homo sapiens) [compound 579] | “++” (≥20% = ++)
